Assay results taken from the supplement of paper PMC9170038.

System: MS2 coat protein
Test: apparent KD of MS2 coat protein; designed switch direction (-1 OFF switch, 1 ON switch): -1; higher = weaker reporter binding
How it was run: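 Designed RNA switches with common flanks were made on Illumina chips by stalled E. coli RNA polymerase. Titration with SNAP-549-labelled MS2 coat protein doubled from 0.7 or 1.5 nM up to 3 µM. Apparent KD is each design's median over clusters after curve-fitting normalised fluorescence.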

[1] = Eterna round: R95, input ligand: FMN 200 uM
[2] = Eterna round: R95, input ligand: microRNA oligo, concentration not stated
[3] = Eterna round: R95, input ligand: none

UCUUAUUGAGGAUAUACAUUAAUUUACAUGAGGAUCACCCAUGUUCUUCAAUGUAUAUAUGUAGAAGGCAGAAGAU [Mat - Exclusion 5 - JL Mod - D29] (Eterna round: R97, puzzle: Exclusion 5)
apparent KD of MS2 coat protein (input ligand: FMN 200 uM): 0.0414 µM
apparent KD of MS2 coat protein (input ligand: none): 0.0181 µM

UCUUAUUGCAAGGAUAUGCAAAUUAUUAUUAAUGCAGAAGGUGCUACAUGAGGAUCACCCAUGUUUCCGGGAAA [JR_E6_Sub041] (puzzle: Exclusion 6)
apparent KD of MS2 coat protein [1]: 0.0666 µM
apparent KD of MS2 coat protein [2]: 0.0316 µM
apparent KD of MS2 coat protein [3]: 0.0315 µM

UCUUAUUGCAAGGAUAUGCAAAUUAUUUUUUAAGCAGAAGGUGCAACAUGAGGAUCACCCAUGUUUCCGGGAAA [JR_E6_Sub039] (puzzle: Exclusion 6)
apparent KD of MS2 coat protein [2]: 0.0239 µM

UCUUGUUGUCCGUGAGAAGACAUGAGGAUCACCCAUGUUAGUUUGAUUAUGAUGUGUAAGUUUGUUGUUCGUUUUAU [JR_STOV1_v2_Sub072] (Eterna round: R97, puzzle: Sensor, turn-off variant 1)
apparent KD of MS2 coat protein (input ligand: FMN 200 uM): 0.0531 µM
apparent KD of MS2 coat protein (input ligand: none): 0.0631 µM

UCUUUACAUGAGGAUCACCCAUGUGAGGAUAUGGUUUCGCUGGCCGUAGCCAGUGGAACCAGAAGGCGCAUGAU [Mat - Exclusion 1 - JL Mod - D9] (Eterna round: R97, puzzle: Exclusion 1)
apparent KD of MS2 coat protein (input ligand: FMN 200 uM): 0.0514 µM
apparent KD of MS2 coat protein (input ligand: none): 0.0279 µM

UGAAGGCGAGGAUAUACUGUAUGGGACAUGAGGAUCACCCAUGUUCUGUGUGUACCCGUCGUAGAAGGCGCGAAGA [EX5 C.9] (Eterna round: R97, puzzle: Exclusion 5)
apparent KD of MS2 coat protein (input ligand: FMN 200 uM): 0.016 µM
apparent KD of MS2 coat protein (input ligand: none): 0.0145 µM

UGAAGUAGAGGAUAUACGUGGAAAUAGAUUCAUGUAUAUCUACAUGAGGAUCACCCAUGUAGAAGGCUAUAGAU [JR_Ex2_Sub073] (Eterna round: R97, puzzle: Exclusion 2)
apparent KD of MS2 coat protein (input ligand: FMN 200 uM): 0.0228 µM
apparent KD of MS2 coat protein (input ligand: none): 0.0224 µM

UGAAGUUGUGUGAGGAUAUCGGGCCCGAAAGGGCCCGAGAAGGCACAUGAGGAUCACCCAUGUAAGCGGCUUCG [-37.8, -35.7 kcal, A 26%, 0-3] (Eterna round: R97, puzzle: Brourd's mod of Exclusion 4)
apparent KD of MS2 coat protein (input ligand: FMN 200 uM): 0.0158 µM
apparent KD of MS2 coat protein (input ligand: none): 0.0196 µM

UGACGGAUAGGAUAUGUAUCGCCUGACAUGAGGAUCACCCAUGUGGUUCAUAAGUUGCCAACAGAAGGAUCAGAAA [Eternabot (L1) Solution 60] (Eterna round: R97, puzzle: Exclusion 5)
apparent KD of MS2 coat protein (input ligand: FMN 200 uM): 0.129 µM
apparent KD of MS2 coat protein (input ligand: none): 0.18 µM

UGACUUCAUAUCACAUGAGGAUCACCCAUGUUAUUCAUCGCGUAGGAUAUCGAGGUUUAUUAUUACGAGAAGGACGUAUUGAUA [JR_ExcNG3_Sub074] (Eterna round: R96, puzzle: Exclusion NG 3)
apparent KD of MS2 coat protein (input ligand: FMN 200 uM): 0.0611 µM
apparent KD of MS2 coat protein (input ligand: microRNA oligo, concentration not stated): 0.0345 µM
apparent KD of MS2 coat protein (input ligand: none): 0.0407 µM

UGAGAACAUGAGGAUCACCCAUGUAAGGAUAUGCGAAGAGUUCGGAGAGGUUGAGGAGGCAGAAGGUACAGGAG [JR_Exclu1_Sub043] (puzzle: Exclusion 1)
apparent KD of MS2 coat protein [1]: 0.0468 µM
apparent KD of MS2 coat protein [2]: 0.0358 µM
apparent KD of MS2 coat protein [3]: 0.0587 µM

UGAGAACAUGAGGAUCACCCAUGUAAGGAUAUGCGAAGAGUUCGGAGAGGUUGAGGAGGCAGAAGGUACGGGAG [JR_Exclu1_Sub044] (puzzle: Exclusion 1)
apparent KD of MS2 coat protein [1]: 0.0375 µM
apparent KD of MS2 coat protein [2]: 0.0325 µM
apparent KD of MS2 coat protein [3]: 0.0498 µM

UGAGAGUCAGGAUAUCGAAGGUAGUGGAGAGGAGUGUGGUACGAGAAGGGACAUGAGGAUCACCCAUGUAGGUG [JR_Exclusion4)Sub009] (puzzle: Exclusion 4)
apparent KD of MS2 coat protein [2]: 0.42 µM
